-log Kd data for 46 molecules are collected here from patent publication US20150087809A1.

The target of one assay is T1, HLA-A24 type molecule (product of the HLA-A*2402 gene) (human).
Conditions: not given
For the molecule LMCAVHPEL (modifications not checked) [SEQ ID NO 55], the -log Kd is 6.59 -log Kd (M).

On to WHYPCTVNF (modifications not checked) [SEQ ID NO 52], for which the -log Kd is 6.39 -log Kd (M).

For LMTHFFSIL (modifications not checked) [SEQ ID NO 64], the -log Kd is 5.92 -log Kd (M).

In the case of ILMTHFFSI (modifications not checked) [SEQ ID NO 60], the -log Kd was 7.9 -log Kd (M).

As to AQPGYPWPL (modifications not checked) [SEQ ID NO 58], the -log Kd was 5.36 -log Kd (M).

SYTWTGALI (modifications not checked) [SEQ ID NO 61]: the -log Kd is 7.13 -log Kd (M).

On to TVLADFKTW (modifications not checked) [SEQ ID NO 56], for which the -log Kd was 6.52 -log Kd (M).

Take ILLGPADSF (modifications not checked) [SEQ ID NO 75]: the -log Kd is 5.5 -log Kd (M).

Take PLLRDEVTF (modifications not checked) [SEQ ID NO 59]: the -log Kd was 5.09 -log Kd (M).

Turning to GLIHLHQNI (modifications not checked) [SEQ ID NO 54], the -log Kd is 5.86 -log Kd (M).

Consider AYYSMVGNW (modifications not checked) [SEQ ID NO 67], for which the -log Kd is 6.47 -log Kd (M).

For VILDSFEPL (modifications not checked) [SEQ ID NO 45], the -log Kd was 5 -log Kd (M).

Consider LLKRLHQWI (modifications not checked) [SEQ ID NO 65], for which the -log Kd is 6.86 -log Kd (M).

As for AFYGVWPLL (modifications not checked) [SEQ ID NO 49], the -log Kd is 7.73 -log Kd (M).

Consider WLRDVWDWI (modifications not checked) [SEQ ID NO 76], for which the -log Kd was 6.34 -log Kd (M).

In the case of RYAPACKPL (modifications not checked) [SEQ ID NO 71], the -log Kd was 6.76 -log Kd (M).

Another assay addresses T1, HLA-A24 type molecule (product of the …).
Conditions: not given
The source holds these as a separate data set.
In the case of AQPGYPWPL (modifications not checked) [SEQ ID NO 12], the -log Kd is 5.36 -log Kd (M).

For the molecule ILMTHFFSI (modifications not checked) [SEQ ID NO 13], the -log Kd was 7.9 -log Kd (M).

On to LMTHFFSIL (modifications not checked) [SEQ ID NO 18], for which the -log Kd is 5.92 -log Kd (M).

As to SYTWTGALI (modifications not checked) [SEQ ID NO 14], the -log Kd is 7.13 -log Kd (M).

As for LLSTTEWQI (modifications not checked) [SEQ ID NO 42], the -log Kd is 8.34 -log Kd (M).

Take ILPCSFTTL (modifications not checked) [SEQ ID NO 1]: the -log Kd is 7.66 -log Kd (M).

Take NFSRCWVAL (modifications not checked) [SEQ ID NO 37]: the -log Kd was 6.28 -log Kd (M).

Take ITYSTYCKF (modifications not checked) [SEQ ID NO 40]: the -log Kd is 6.98 -log Kd (M).

As to LLKRLHQWI (modifications not checked) [SEQ ID NO 19], the -log Kd was 6.86 -log Kd (M).

With ILLGPADSF (modifications not checked) [SEQ ID NO 27], the -log Kd is 5.5 -log Kd (M).

Turning to AYYSMVGNW (modifications not checked) [SEQ ID NO 22], the -log Kd is 6.47 -log Kd (M).

VILDSFDPI (modifications not checked) [SEQ ID NO 2]: the -log Kd is 5.32 -log Kd (M).

For WHYPCTVNF (modifications not checked) [SEQ ID NO 8], the -log Kd was 6.39 -log Kd (M).

For another assay the target is unchanged.
Conditions: not given
The source holds these as a separate data set.
As for WLRDVWDWI (modifications not checked) [SEQ ID NO 106], the -log Kd was 6.34 -log Kd (M).

Turning to AYYSMVGNW (modifications not checked) [SEQ ID NO 102], the -log Kd was 6.47 -log Kd (M).

For the molecule WHYPCTVNF (modifications not checked) [SEQ ID NO 92], the -log Kd was 6.39 -log Kd (M).

As for ILMTHFFSI (modifications not checked) [SEQ ID NO 96], the -log Kd was 7.9 -log Kd (M).

Consider AFYGVWPLL (modifications not checked) [SEQ ID NO 98], for which the -log Kd is 7.73 -log Kd (M).

On to TVLADFKTW (modifications not checked) [SEQ ID NO 90], for which the -log Kd is 6.52 -log Kd (M).

For the molecule RYAPACKPL (modifications not checked) [SEQ ID NO 110], the -log Kd was 6.76 -log Kd (M).

For the molecule GLIHLHQNI (modifications not checked) [SEQ ID NO 94], the -log Kd was 5.86 -log Kd (M).

Take LLKRLHQWI (modifications not checked) [SEQ ID NO 104]: the -log Kd is 6.86 -log Kd (M).

With ILLGPADSF (modifications not checked) [SEQ ID NO 100], the -log Kd is 5.5 -log Kd (M).

For the molecule PLLRDEVTF (modifications not checked) [SEQ ID NO 87], the -log Kd was 5.09 -log Kd (M).

As to VLADFKTWL (modifications not checked) [SEQ ID NO 112], the -log Kd was 6.63 -log Kd (M).

Regarding VILDSFEPL (modifications not checked) [SEQ ID NO 84], the -log Kd is 5 -log Kd (M).

For VFPDLGVRV (modifications not checked) [SEQ ID NO 123], the -log Kd was 6.74 -log Kd (M).

In the case of LLSTTEWQI (modifications not checked) [SEQ ID NO 109], the -log Kd was 8.34 -log Kd (M).

For SYTWTGALI (modifications not checked) [SEQ ID NO 108], the -log Kd was 7.13 -log Kd (M).

Still in this assay, the particulars now being: remark: other sources report otherwise.
With ITYSTYGKF (modifications not checked) [SEQ ID NO 107], the -log Kd is 6.37 -log Kd (M).
